Measured values: PMC7087056 (The Yale Journal of Biology and Medicine, 2020)

Target: T1, His6-K10^C401A-2B (human keratin 10 helix 2B domain with C401A, His6 tag kept) (human, UniProt P13645 337-456, C401A)
T1 sequence (looked up): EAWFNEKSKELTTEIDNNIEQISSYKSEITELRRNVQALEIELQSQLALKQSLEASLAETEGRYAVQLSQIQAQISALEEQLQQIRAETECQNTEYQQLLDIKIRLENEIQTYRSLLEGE
Experiment: pull-down

B1: human keratin 1 helix 2B domain (K1-2B) (domain or fragment, UniProt P04264 370-489, looked up)
chain: ESLYQSKYEELQITAGRHGDSVRNSKIEISELNRVIQRLRSEIDNVKKQISNLQQSISDAEQRGENALKDAKNKLNDLEDALQQAKEDLARLLRDYQELMNTKLALDLEIATYRTLLEGE
  stoichiometry N: 1
